Results taken from patent US20190218283A1 (published 2019).

Molecular target: murine pro-myostatin (proGDF8) (mouse, UniProt O08689 25-376)
Assay: cell-based or functional assay

B1: Ab6 (Ab5 IgG4 containing the corrected germline residues) (antibody, V domains shown)
VH: QVQLVESGGGVVQPGRSLRLSCAASGFAFSSYGMHWVRQAPGKGLEWVAVISYDGNNKYYADSVKGRFTISRDNSKNTLYLQMNSLRAEDTAVYYCARDLLVRFLEWSHKYGMDVWGQGTTVTVSS
VL: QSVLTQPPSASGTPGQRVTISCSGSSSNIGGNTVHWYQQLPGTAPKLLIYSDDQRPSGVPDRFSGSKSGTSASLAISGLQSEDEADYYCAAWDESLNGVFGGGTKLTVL
Activity Assay - 293T cells EC50: 307 pM
